This note sets out measurements from patent KR20230117039A (dated 2023).

Experiment [1] deals with T1, N-terminally biotinylated hNinj1 (2-56) peptide (human, UniProt Q92982 2-56, N-terminal biotin).
T1 construct: range 2-56; also called hNinj1 펩타이드
T1 sequence (peptide, looked up): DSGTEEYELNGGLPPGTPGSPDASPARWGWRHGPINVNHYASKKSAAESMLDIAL
As to the kind of experiment: scFv clone ELISA screen.

Experiment [2] deals with T2, hNinj1 extracellular domain peptide with added C-terminal lysine, biotinylated (human).
T2 sequence (peptide, biotin on the added C-terminal lysine (K57)): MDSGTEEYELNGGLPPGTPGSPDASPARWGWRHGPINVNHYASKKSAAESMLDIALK
In words: clone ELISA screen.

Experiment [3] has as its target T3, NINJ1 peptide (analyte of the sandwich ELISA) (UniProt Q92982 1-56, limits assumed).
T3 construct: also called Ninj1 펩타이드; NINJ1 펩타이드
T3 sequence (peptide, looked up): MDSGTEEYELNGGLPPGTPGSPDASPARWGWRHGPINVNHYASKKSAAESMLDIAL
In words: sandwich ELISA, NINJ1 titrated.

B1: E6, scFv clone of the VH3VL1 synthetic human antibody library (scFv)
chain: EVQLLESGGGLVQPGGSLRLSCAASGFTFSSYAIHWVRQAPGKGLEWVSAISGSGGSTYYADSVKGRFTISRNNSKNTLYLQVNSLRAEDTAVYYCARNPTYGGFDIWGQGTLVTVSSGGGGSGGGGSGGGGSQSVLTQPPSASGTPGQRVTISCSGSSSNIGSNYVYWYQQLPGTAPKLLIYRNNQRPSGVPDRFSGSKSGTSASLAISGLRSEDEADYYCGAWDDSLSSPVFGGGTKLTVLGQAGQHHHHHHGAYPYDVPDYAS
As to B1, in experiment [1], the “ELISA ratio hNinj1/control” value was found to be 5.62.

B2: B3, scFv clone of the VH3VL1 synthetic human antibody library (scFv)
chain: EVQLLESGGGLVQPGGSLRLSCAASGFTFSDYDMSWVRQAPGKGLEWVSGISSDNGSTYYADSVKGRFTISRDNSKNTLYLQMNSLRAEDTAVYYCARAAITCNNEWCYYYDAMDVWGQGTLVTVSSGGGGSGGGGSGGGGSQSVLTQPPSASGTPGQRVTISCTGPSSNIGNNDVSWYQQLPGTAPKLLIYANSNRPSGVSDRFSGSKSGTSASLAISGLRSEDEADYYCGAWDDSLNGYVFGGGTKLTVLGQAGQHHHHHHGAYPYDVPDYAS
In the case of B2, in experiment [1], the “ELISA ratio hNinj1/control” value came out at 5.12.

B3: C12, Fab clone of the rabbit immune library (Fab, V domains shown)
VH: QEQLKETGGGLVQPGGSLKLSCKASGIDFNTYTVSWVRQAPGKGLELIGYVDPVFDDTYYATWVNGRFTISSHNAQNTVYLQLNSLTAADTATYFCARLGAYDSSSGYPNFSLWGPGTLVTISS
VL: ELTQPPSLSASLDTTARLTCTLSTDYSVGEYPLVWLQQVPGRPPRYLLGYHTDDIKHQGPGVPSRFSGSKDHSTNTGVLTISGLQPEDEADYYCAVGVVFGGGTQLTVTG
Turning to B3, the ELISA ratio hNinj1/control in experiment [2] is 5.09.

B4: C12 anti-Ninj1 IgG antibody (antibody, V domains shown)
VH: QEQLKETGGGLVQPGGSLKLSCKASGIDFNTYTVSWVRQAPGKGLELIGYVDPVFDDTYYATWVNGRFTISSHNAQNTVYLQLNSLTAADTATYFCARLGAYDSSSGYPNFSLWGPGTLVTISS
VL: ELTQPPSLSASLDTTARLTCTLSTDYSVGEYPLVWLQQVPGRPPRYLLGYHTDDIKHQGPGVPSRFSGSKDHSTNTGVLTISGLQPEDEADYYCAVGVVFGGGTQLTVTG
notes: Tested as IgG made in ExpiCHO; also called C12 IgG; 항 C12 Ninj1 항체
In the case of B4, in experiment [3], the EC50 (in general, the concentration giving half of the maximal effect) is around 0.03 µg/mL.

B5: G2, Fab clone of the rabbit immune library (Example 1.3.3) (Fab, V domains shown)
VH: QEQLKETGGGLVQPGGSLKLSCKASGIDFNTYTVSWVRQAPGKGLELIGYVDPVFDDTYYATWVNGRFTISSHNAQNTVYLQLNSLTAADTATYFCARLGAYDSSSGYPNFSLWGPGTLVTISS
VL: ELTQPPSLSASLDTTARLTCTLSTDYSVGEYPLVWLQQVPGRPPRYLLGYHTDDIKHQGPGVPSRFSGSKDHSTNTGVLTISGLQPEDEADYYCAVGVVFGGGTQLTVTG
In the case of B5, the ELISA ratio hNinj1/control in experiment [2] came out at 10.6.

B6: C11, scFv clone of the VH3VL1 synthetic human antibody library (scFv)
chain: EVQLLESGGGLVQPGGSLRLSCAASGFTFSSYGISWVRQAPGKGLEWVSAISGSGGSTYYADSVKGRFTISRDNSKNTLYLQMNSLRAEDTAVYYCARTPIDADAFDYWGQGTLVTVSSGGGGSGGGGSGGGGSQSVLTQPPSASGTPGQRVTISCTGNIGNIASNYVQWYQQLPGTAPKLLIYDTYNKHRGVPDRFSGSKSGTSASLAISGLRSEDEADYYCGAWDDSLSGPVFGGGTKLTVLGQAGQHHHHHHGAYPYDVPDYAS
Consider B6, for which, in experiment [1], the “ELISA ratio hNinj1/control” value is 6.18.
